Experimental findings from the nanobody polyreactivity screen of Harvey et al. (2022) are described below.

The data set can be described thus: yeast display, Sf9 membrane polyspecificity reagent, FACS + sequencing; frameworks hold sequencing errors. The gist of the method:
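Sorting gates, low and high (top ~1%), were placed on anti-HA fluorescence to track expression and on streptavidin fluorescence to track reagent binding. A clone's polyreactivity label is taken from the gate it came out of. The reagent was 10% biotinylated, detergent-solubilized Sf9 membrane, applied for 1 hour at 4 °C to galactose-induced yeast display cells.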
For “QVQLVESGGGLVQAGGSLRLSCAASGRIFYLNAMGWYRQAPGKERQLVATITSGGSTNYADSVKGRFTISRDNAKNTVYLQMNSLKPEDTAVYYCAAGVSWYGPYDYLWFYAFDYWGQGTQVTVSS”, the “polyreactivity (PSR sort gate)” value is reported as “low polyreactivity”.

Turning to “QVQLVESGGGLVQAGGSLRLSCAASGRIFYLNGKGWYRQAPGKERELVAAISSSDDSTYYADSVKGRFTISRDNAKNTVYLQMKSLKPEDTAVYYCAAGYHQVQNYGDAYYWSELYSWGQGTQVTVSS”, the “polyreactivity (PSR sort gate)” value is listed as “low polyreactivity”.

Regarding “QVQLVESGGGLVQAGGSLRLSCAASGRIFYLNGMGWYRQAPGKERELLAAISSSDDSTYYADSVKGRFTISRDNAKNTVYLQMISLKPEDTAVYYCAAGYHHVQNYGDAYYWSELYSWGQGTQVTVSS”, the “polyreactivity (PSR sort gate)” value is “low polyreactivity”.

Consider “QVQLVESGGGLVQAGGSLRLSCAASGRIFYLNVMGWYRQAPGKERELVAAITRRDVTTYADSVKGRFTISRDNAKNTVYLEMNSLKPEDTAVYYCNAVYYNWIGFDYWGQGTQVTVSS”, for which the “polyreactivity (PSR sort gate)” value was “low polyreactivity”.

Consider “QVQLVESGGGLVQAGGSLRLSCAASGRIFYLYTMAWYRQAPGKERELVAAITWSGGRTFYADSVKGRFTISRDNAKNTVYLQMNSLKPEDTAVYYCAARAYDSVGKYYYWGQGTQVNVSS”, for which the “polyreactivity (PSR sort gate)” value was “high polyreactivity”.

As to “QVQLVESGGGLVQAGGSLRLSCAASGRIFYLYTMGWYRQAPGKERELVAAITWSGGRTFYADSVKGRFTISRDNAKNTVYLQMNSLKPEDTAVYYCAARAYDSVGKYYYWGQGTQVTVSS”, the “polyreactivity (PSR sort gate)” value is “high polyreactivity”.

With “QVQLVESGGGLVQAGGSLRLSCAASGRIFYNNVMGCYRQAPGKERELVAAISGNGGSTYYADSVKGRFTISRDNAKNTVYLQMNSLKPEDTAVYYCAARSSFRTLIFYQKFDYWGQGSQVTVSS”, the “polyreactivity (PSR sort gate)” value is reported as “low polyreactivity”.

On to “QVQLVESGGGLVQAGGSLRLSCAASGRIFYNYAMGWYRQAPGKERELVAAISGSGGSTYYADSVKGRFTISRDNAKNTVYLQMNSLKPEDTEVYYCSTSGPQYYSRNFDYWGQGTQVTVSS”, for which the “polyreactivity (PSR sort gate)” value is on record as “low polyreactivity”.

For “QVQLVESGGGLVQAGGSLRLSCAASGRIFYNYAMRWYRQAPGKERELVAAISGSGGSTYYADSVKGRFTISRDNAKNTVYLQMNSLKPEDTAVYYCSTSGPQYYSRNFDYWGQGTQVTVSS”, the “polyreactivity (PSR sort gate)” value is given as “low polyreactivity”.

Turning to “QVQLVESGGGLVQAGGSLRLSCAASGRIFYNYGMGWYRQAPGKERELVAAISSSGGSTSYADSVKGRFTISRDNAKNTVYLQMNSLKPEDTAVYYCAASWPRWWRFGYWGQGTQVTVSS”, the “polyreactivity (PSR sort gate)” value is on record as “low polyreactivity”.

Regarding “QVQLVESGGGLVQAGGSLRLSCAASGRIFYPNALGWYRQAPGTERELVAAITWRGGRTYYADSVKGRFTISRDNAKNTVYLQMNSLKPEDTAVYYCNAVAPGKYNHWGQGTQVTVSS”, the “polyreactivity (PSR sort gate)” value is “high polyreactivity”.

Consider “QVQLVESGGGLVQAGGSLRLSCAASGRIFYPNAMGWYRPAPGKVRELVAGISRSGGSTYYADSVKGRFTLSRDNAKNTVYLQKNSLKPEDTAVYYCAARYYASDRHFRGDYWGQGTQVTVSS”, for which the “polyreactivity (PSR sort gate)” value is on record as “low polyreactivity”.

Consider “QVQLVESGGGLVQAGGSLRLSCAASGRIFYPYAMAWYRQAPGKERELVAAISGSGARKYYADSVKGRFTISRDNAKNTVYLQMNSLKPEDTAVYYCARYQSNSDVYWGQGTQVTVSS”, for which the “polyreactivity (PSR sort gate)” value is on record as “high polyreactivity”.

For “QVQLVESGGGLVQAGGSLRLSCAASGRIFYPYAMGWSRQAPGKERELVASISGRGTTTYYADSVKGRFTISRDNAKNTVYLQMNSLKPEDTGVYYCNAYPPTQYGYYYWGQGTQVTVSS”, the “polyreactivity (PSR sort gate)” value was “high polyreactivity”.

With “QVQLVESGGGLVQAGGSLRLSCAASGRIFYPYAMGWYRPAPGKERELVAVINGSGGSTYYADSVKGRFTISRDNAKNTVYLPMNSLKPEDTAVYYCAADYPKTYTSKFNYWGQGTQVTVSS”, the “polyreactivity (PSR sort gate)” value is recorded as “high polyreactivity”.

Consider “QVQLVESGGGLVQAGGSLRLSCAASGRIFYPYAMGWYRQAPGKERELVAAIDFSDGNSYYADSVKGRFTISRDNAKNTVYLQMYSLKPEDTAVYYCAVDYTGAWIGVWYDYWGLGTQVTVSS”, for which the “polyreactivity (PSR sort gate)” value was “high polyreactivity”.

Regarding “QVQLVESGGGLVQAGGSLRLSCAASGRIFYPYAMGWYRQAPGKERELVAAIDWTAGGTYYADSVKGRFTISRDNAKNTVYLQMNSLKPEDTAVYYCAAEYYIEANGDYWGQGTQVTVSS”, the “polyreactivity (PSR sort gate)” value was “low polyreactivity”.

As for “QVQLVESGGGLVQAGGSLRLSCAASGRIFYPYAMGWYRQAPGKERELVADISSAGSTYYADSVKGRFTISRDNAKNTVYLQMNSLKPEDTAVYYCAADRTSGAYYFRFLYDRDYWGQGTQVTVSS”, the “polyreactivity (PSR sort gate)” value is on record as “low polyreactivity”.

“QVQLVESGGGLVQAGGSLRLSCAASGRIFYPYAMGWYRQAPGKERELVAVINGSGGSTYYADSVKGRFTISRDNAKNTVYLQMNSLKPEDTAVYYCAAYFGHYWRYYYWGQGSQVTVSS”: the “polyreactivity (PSR sort gate)” value is recorded as “high polyreactivity”.

Take “QVQLVESGGGLVQAGGSLRLSCAASGRIFYQNAMGWYRQAPGKERELVAAISSSGDSTYADSVKGRFTISRDNAKNTVYLQMNSLKPEDTAVYYCAAGVGWEFDYWRQGTQVTVSS”: the “polyreactivity (PSR sort gate)” value is listed as “low polyreactivity”.

On to “QVQLVESGGGLVQAGGSLRLSCAASGRIFYQYAMGWYRQAPGKERELVAAISWSGGNTYYADSVKGRFTISRDNAKKTVYFQMNSLKPEDPAVYYCNRYWYRDRLWLYDYWGQGTQVTVSS”, for which the “polyreactivity (PSR sort gate)” value was “high polyreactivity”.

Regarding “QVQLVESGGGLVQAGGSLRLSCAASGRIFYQYAMGWYRQAPGKERELVASISRSGTRTYYADSVKGRFTISRDNAKNTVYLQMNSLKPEDTAVYYCAAGYNLYYGVIYGFDYWGQGTQVTVSS”, the “polyreactivity (PSR sort gate)” value is “high polyreactivity”.

“QVQLVESGGGLVQAGGSLRLSCAASGRIFYQYAMGWYRQAPGKERELVASITTSGGNTYYADSVKGRFTISRDNAKITFYLQMNSLKPEDTAVYYCAARFNWRQWLYEYWGQGTQVTGSS”: the “polyreactivity (PSR sort gate)” value is recorded as “low polyreactivity”.

Consider “QVQLVESGGGLVQAGGSLRLSCAASGRIFYQYAMGWYRQAPGKERELVASITTSGGNTYYADSVKGRFTISRDNAKNTVYLQMNSLKPEDTAVYYCAARFNWRQWLYDYWGQGTQVTVSS”, for which the “polyreactivity (PSR sort gate)” value was “low polyreactivity”.

As for “QVQLVESGGGLVQAGGSLRLSCAASGRIFYRNAMGWYRQAPGKERELVAAISGSGGSTYYADSVKGRFTISRDNAKNTVYLQMNSLKPEDTAVYYCNVDRSPTHIVGYGYWGQGTQVTVSS”, the “polyreactivity (PSR sort gate)” value was “low polyreactivity”.

“QVQLVESGGGLVQAGGSLRLSCAASGRIFYRNAMGWYRQAPGKERELVAGITRGGSTNYADSVKGRFTISRDNAKNTVYLQMNSLKPEDTAVYYCAKAIPAKFYSEAGYDYWGQGTQVTVSS”: the “polyreactivity (PSR sort gate)” value was “low polyreactivity”.

As to “QVQLVESGGGLVQAGGSLRLSCAASGRIFYRNTMGWYRQAPGKERELVAAITRSGGITNYADSVKGRFTISRDNAKNTVYLQMNSLKPEDTAVYYCNAAYLYSASRGVYRYRGDYWGQGTQVTVSS”, the “polyreactivity (PSR sort gate)” value is reported as “high polyreactivity”.

“QVQLVESGGGLVQAGGSLRLSCAASGRIFYRNTMGWYRQAPGKERELVAAITWRAGRTYYADSVKGRFTISRDNAKNTVYLQMNSLKPEDTAVYYCNADRTAPERYSRVPSSDSWGQGTQVTVSS”: the “polyreactivity (PSR sort gate)” value is “high polyreactivity”.

As for “QVQLVESGGGLVQAGGSLRLSCAASGRIFYRYAMGWYIQAPWKERELVASISLSGDSTYYADSVKGRFTISRDNAKNTVYLQMNSLKREDTAFYYCDVEGLGAAVYAGDRYDYWGQGTQVTVSS”, the “polyreactivity (PSR sort gate)” value is “low polyreactivity”.

Turning to “QVQLVESGGGLVQAGGSLRLSCAASGRIFYRYAMGWYRQAPGKERELVAAIRYSGGRTYYADSVKGRFTISRDNAKNTVYLQMNSLKPEDTAVYDCAADGHWYYAPFGGGDYENDYWGQGTQVTVSS”, the “polyreactivity (PSR sort gate)” value is listed as “low polyreactivity”.
